Data on two molecules can be found in publication PMC10843684 (Molecular cell, 2023).

Holding throughout (assay): cryo-EM structure
Test [1] deals with T1, RMND5A (RING subunit of the CTLH E3 catalytic module) (human, UniProt Q9H871 1-391).
T1 sequence: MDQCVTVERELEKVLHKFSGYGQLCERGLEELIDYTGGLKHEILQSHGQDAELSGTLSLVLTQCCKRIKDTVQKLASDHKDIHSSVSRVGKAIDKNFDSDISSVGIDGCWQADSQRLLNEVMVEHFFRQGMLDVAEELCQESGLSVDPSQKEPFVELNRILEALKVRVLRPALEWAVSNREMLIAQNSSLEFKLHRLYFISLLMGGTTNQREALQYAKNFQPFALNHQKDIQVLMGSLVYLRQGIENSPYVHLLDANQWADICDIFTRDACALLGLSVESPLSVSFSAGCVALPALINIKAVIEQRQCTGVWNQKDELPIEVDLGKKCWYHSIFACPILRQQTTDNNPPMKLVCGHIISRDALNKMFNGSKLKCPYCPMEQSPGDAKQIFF

The target in test [2] is T2, MAEA (U-box subunit of the CTLH E3 catalytic module) (human, UniProt Q7L5Y9 1-396).
T2 sequence: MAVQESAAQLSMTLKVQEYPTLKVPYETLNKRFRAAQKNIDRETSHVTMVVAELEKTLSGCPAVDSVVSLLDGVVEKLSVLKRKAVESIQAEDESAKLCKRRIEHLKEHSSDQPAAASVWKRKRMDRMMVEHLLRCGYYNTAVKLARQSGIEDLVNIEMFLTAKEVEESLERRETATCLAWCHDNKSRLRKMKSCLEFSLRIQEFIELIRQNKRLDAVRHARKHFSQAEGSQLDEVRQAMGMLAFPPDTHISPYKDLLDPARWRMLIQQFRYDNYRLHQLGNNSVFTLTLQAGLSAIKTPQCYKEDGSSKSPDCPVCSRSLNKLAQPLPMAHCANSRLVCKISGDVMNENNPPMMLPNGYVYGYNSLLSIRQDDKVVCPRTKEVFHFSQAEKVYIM

In the next test the target is Chelator-GID^SR4 (S. cerevisiae, UniProt P53076 1-958; P40208 1-455; P40547 1-921; P38263 1-362; Q12508 1-421; P40492 …).

B1: UBE2H C87K, insect cell-expressed and fully phosphorylated with CK2 (the E2 chain of the UBE2H~ubiquitin mimic) (enzyme, human, UniProt P62256 1-183, looked up)
chain: MSSPSPGKRRMDTDVVKLIESKHEVTILGGLNEFVVKFYGPQGTPYEGGVWKVRVDLPDKYPFKSPSIGFMNKIFHPNIDEASGTVKLDVINQTWTALYDLTNIFESFLPQLLAYPNPIDPLNGDAAAMYLHRPEEYKQKIKEYIQKYATEEALKEQEEGTGDSSSESSMSDFSEDEAQDMEL
modifications: phosphoserines 164, 165, 166, 168, 169, 171 and 174; K87 isopeptide-bonded to ubiquitin
With B1, the binding result in test [1] and in test [2] was “binds” throughout.

B2: Fbp1-6xHis (fructose-1,6-bisphosphatase) (natural protein, S. cerevisiae)
chain: MPTLVNGPRRDSTEGFDTDIITLPRFIIEHQKQFKNATGDFTLVLNALQFAFKFVSHTIRRAELVNLVGLAGASNFTGDQQKKLDVLGDEIFINAMRASGIIKVLVSEEQEDLIVFPTNTGSYAVCCDPIDGSSNLDAGVSVGTIASIFRLLPDSSGTINDVLRCGKEMVAACYAMYGSSTHLVLTLGDGVDGFTLDTNLGEFILTHPNLRIPPQKAIYSINEGNTLYWNETIRTFIEKVKQPQADNNNKPFSARYVGSMVADVHRTFLYGGLFAYPCDKKSPNGKLRLLYEAFPMAFLMEQAGGKAVNDRGERILDLVPSHIHDKSSIWLGSSGEIDKFLDHIGKSQ
For the molecule B2, in the test with Chelator-GID^SR4, the binding result was “binds”.
